Source: publication PMC5750232, “RAD54 N-terminal domain is a DNA sensor that couples ATP hydrolysis with branch migration of Holliday junctions” (Nature Communications, 2018)
Changes are numbered by the printed parent chain.

Legend:
RAD54 1-142 52AA53 = biological target: T1, RAD54 1-142 52AA53 (human, UniProt Q92698 1-142, R52A;K53A); assay: EMSA; similar to non-mutated 1-142; 5 mM Mg2+, 2 mM ATP; 25 mM Tris-acetate pH 7.5, 5 mM Mg acetate, 100 ug/ml BSA, 2 mM DTT, 2 mM ATP, 10% glycerol, 4 C, 45 min; 30 nM PX junction; 6% native PAGE in 0.25x TBE; conditions: protein: recombinant; tags: Sumo-His, cleaved; partial X junction with one ssDNA arm, 4 strands
T1 sequence: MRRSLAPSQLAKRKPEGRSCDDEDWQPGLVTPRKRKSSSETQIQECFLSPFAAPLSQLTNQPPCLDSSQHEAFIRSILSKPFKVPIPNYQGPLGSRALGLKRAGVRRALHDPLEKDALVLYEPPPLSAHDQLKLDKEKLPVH

RAD54 1-142 T31E = biological target: T2, RAD54 1-142 T31E (human, UniProt Q92698 1-142, T31E); assay: EMSA; no significant effect of mutation; 5 mM Mg2+, 2 mM ATP; 25 mM Tris-acetate pH 7.5, 5 mM Mg acetate, 100 ug/ml BSA, 2 mM DTT, 2 mM ATP, 10% glycerol, 4 C, 45 min; 30 nM PX junction; 6% native PAGE in 0.25x TBE; conditions: protein: recombinant; tags: Sumo-His, cleaved; partial X junction with one ssDNA arm, 4 strands
T2 sequence: T1 sequence with T31E, A52R, A53K

B1: non-mobile PX junction (174/175/176/181) (structured_DNA)
DNA 1: GACGCTGCCGAATTCTACCAGTGCCTTGCTAGGACATCTTTGCCCACCTGCAGGTTCACCC
DNA 2: TGGGTGAACCTGCAGGTGGGCAAAGATGTCCTAGCAATGTAATCGTCAAGCTTTATGCCGTT
DNA 3: CAACGGCATAAAGCTTGACGATTACATTGCTAGGACATGCTGTCTAGAGGATCCGACTATCGA
DNA 4: TCGATAGTCGGATCCTCTAGACAGC
- binding result (RAD54 1-142 52AA53): binds
- binding result (RAD54 1-142 T31E): binds
